Assay results: the nanobody polyreactivity screen of Harvey et al. (2022)

assay: yeast display, Sf9 membrane polyspecificity reagent, FACS + sequencing; frameworks hold sequencing errors
In short: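 A synthetic nanobody library was expressed on Saccharomyces cerevisiae BJ5465 by galactose induction for 36–48 hours. The library was stained for 1 hour at 4 °C with 10% biotinylated, detergent-solubilized Sf9 membrane reagent and enriched with streptavidin microbeads before FACS. Low and high (top ~1%) gates were set on anti-HA fluorescence for expression and streptavidin fluorescence for reagent binding, and each polyreactivity label reflects the gate of origin.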

Sequence | polyreactivity (PSR sort gate)
QVQLVESGGGLVQAGGSLRLSCAASGSTFYYNVMGSYRQAPGKERELVAAITLSGGSTYADSVKGRFTISRDNAKKTVYLQINSLKPEDTAVYYCAKKGRYGRWGYKFDYWGQGTQVTVSS | low polyreactivity
QVQLVESGGGLVQAGGSLRLSCAASGSTFYYYAMGCYRQAPGKERELVAAINSSGGNTYYADSVKGRFTISRDNAKNTVYLQMNCLKPEDTAVYYCATEYYWLQDYDYWGQGTQVTVSS | low polyreactivity
QVQLVESGGGLVQAGGSLRLSCAASGSTFYYYAMGGYRQAPGKERELVAAINDAGGTNYADSVKGRFTISRDNAKNTVYLQMNSLKPEDTAVYYCAADGRIYLTYHEMEYWGQVTQVTVSS | low polyreactivity
QVQLVESGGGLVQAGGSLRLSCAASGSTFYYYAMGWYRQAPGKEREFVAAISSSTGSTYYADSVKGRFTISRDNAKNTVYLQMNSLKPEDTAVYYCNALTWYTSQDYDYWGQGTQVTVSS | high polyreactivity
QVQLVESGGGLVQAGGSLRLSCAASGSTFYYYAMGWYRQAPGKERELVAAIDRDDRTNYADSVKGRFTISRDNAKNTVYLQMNSLKPEDTAVYNSAADSSERRLLDFDYWGQGTQVTVSS | low polyreactivity
QVQLVESGGGLVQAGGSLRLSCAASGSTFYYYAMGWYRQAPGKERELVAAIDWSGESTYYADSVKGRFTISRDKAKKTVYLQMHSLKPEDTAVYYCAADLGYPWGYVLFYKQSISYYYWGQGTQVTVSS | low polyreactivity
QVQLVESGGGLVQAGGSLRLSCAASGSTFYYYAMGWYRQAPGKERELVAAISNRDGRTYYADSVKGRFTISRDNAKNTVYLQMNSLKPEDTAVYYCNAYSYGHYYWGQGTQVTVSS | high polyreactivity
QVQLVESGGGLVQAGGSLRLSCAASGSTFYYYAMGWYRQAPGKERELVAAITKSGGSTYYADSVKGRFTISRDNAKNTVYLQMNSLKPEDTAVYYCAAYLRSGYKFDYWGQGTQVTVSS | low polyreactivity
QVQLVESGGGLVQAGGSLRLSCAASGSTFYYYAMGWYRQAPGKERELVAAITKSRGSTYYADSVKGRFTISRDNAKNTVYLQMNSLKPEDTAVYDCAAYLRSGYKFDYWGQGTQGTVSS | low polyreactivity
QVQLVESGGGLVQAGGSLRLSCAASGSTFYYYAMGWYRQAPGKERELVASINYSAGRTYYADSVKGRFTISRDNAKNTVYLQMNSLKPEDTAVYYCATGYPYHVNRYYYWGQGTQVTVSS | high polyreactivity
QVQLVESGGGLVQAGGSLRLSCAASGSTFYYYAMGWYRQAPGKERELVATISRSTARTFYADSVKGRFTISRDNAKNTVYLQMNSLKPEDTAVYYCAATSYVSVYPSYYRFGTYGYWGQGTQVTVSS | high polyreactivity
QVQLVESGGGLVQAGGSLRLSCAASGSTFYYYAMGWYRQAPGKERELVATISSGSSTNYADSVKGRFTISRDNAKNTVYLQMNSLKPEDTAVYYCATDGDPAYPEMEYWGQGTQVTVSS | low polyreactivity
QVQLVESGGGLVQAGGSLRLSCAASGSTFYYYGMGWYRQAPGKERELVAAINWSGGTTYYADSVKGRFTISRDNAKNTVYLQMNSLKPEDTAVYYCATEHNHLGYYYWGQGTQVTVSS | low polyreactivity
QVQLVESGGGLVQAGGSLRLSCAASGSTFYYYTMGWYRQAPGKERELVATITYRSGNTYYADSVKGRFTISRDNAKNTVYLQMNSLKPEDTAVYYCAALRRVLPYKRYDYWGQGTQVTVSS | high polyreactivity
QVQLVESGGGLVQAGGSLRLSCAASGSTFYYYTMGWYRQAPGKERELVDISWDGDSTYSADSVKGRFTISRDNAKNTVYLQMNSLKPEDTAVYYCAAADYYLPDDVSDYVDANFDYWGQGTQVTVSS | low polyreactivity
QVQLVESGGGLVQAGGSLRLSCAASGSTGGYAMGWYRQAPGKERELVARISYSGGSTYYADSVKGRFTISRDNAKNTVYLQMNSLKPEDTAVYYCAARILYRYYYWGQGTQVTVSS | high polyreactivity
QVQLVESGGGLVQAGGSLRLSCAASGSTHGYAMGWYRQAPGKERELVAAISLNTGSTYYADSVKGRFTIARDNAKNTVYFQMNSLKPEYTAVYYCNADDYTYATYEYDYWGQGTLVTVSS | low polyreactivity
QVQLVESGGGLVQAGGSLRLSCAASGSTIAYYAMGWYRQAPGKERELVAAISKRGGSTYYADSVKGRFTISRDNAKNTVYLQMNSLKPEDTAGYYCATGRSTDKGYYFWGQGTQVTVSS | high polyreactivity
QVQLVESGGGLVQAGGSLRLSCAASGSTIDGYAMGWYRQAPGKEREFVAAISFSSASTYYADSVKGRFTISRDNAKNTVYLQMNSLKPEDTAVYYCNADFFDSGGSIEYDSWGQGSQVTVSS | low polyreactivity
QVQLVESGGGLVQAGGSLRLSCAASGSTIDYYAMGWYRQAPGKERELVAAIDWSGDSTYYADSVKGRFTISRDNAKNTVYLQMNSLKPEDTAVYYCAADLDSRGTYGRYEYWGQGTQVTVSS | low polyreactivity
QVQLVESGGGLVQAGGSLRLSCAASGSTIFPYAMGWYRQAPGKERELVAAITSGGNTNYADSVKGRFTISRDNAKNTVYLQMNSLKPEDTAVYYCAADYFWHYRKYDYWGQGTQVTVSS | low polyreactivity
QVQLVESGGGLVQAGGSLRLSCAASGSTIGANAMGWSRQAPGKERELVAAISLSGGTSYADSVKGRFTISRDNAKNTVYLQMNSLKPEDTAVYYCAAPGRGWFDWYAHYYWGQGTQVTVSS | low polyreactivity

Sequence | polyreactivity (PSR sort gate)
QVQLVESGGGLVQAGGSLRLSCAASGSTIGAYAMGWYRPAPGKERELVAAISRRGGSTYYADSVKGRFTISRDNAKNTVYLQMNSLKPEDSAVYYCNAVGTRVDGEHYYWGQGTQVTVSS | high polyreactivity
QVQLVESGGGLVQAGGSLRLSCAASGSTIGFYAMGWYRQAPGKERELVAVISSGDSTYYADSVKGRFTISRDNAKNTVYLQMNSLKPEDTAVYYCAKDALVIDGGGGYDYWGQGTQVTVSS | low polyreactivity
QVQLVESGGGLVQAGGSLRLSCAASGSTIGLNARGWYRQAPGKERELVAAITRSDITNYADSVKGRFTISRDNAKNTVYLQMNRLKPEDTEVYYCAAESPLYWVDDFESGWRYYYSGQGTQVTVSS | low polyreactivity
QVQLVESGGGLVQAGGSLRLSCAASGSTIGRYAMGWYRQAPGKERELVAAISSSGDRTYYADSVKGRFTISRDNAKNTVYLQMNSLKPEDTAVYYCNSRRLFSGYDYWGQGTQVTVSS | high polyreactivity
QVQLVESGGGLVQAGGSLRLSCAASGSTIGWNAMGWYRQAPRKERELVAAISSSGGITYYADSVKGRYTISRDTAKNTVYLQMNSLKPDDTAVYDCAAEGDDDWVNYWGHGTQVTVSS | low polyreactivity
QVQLVESGGGLVQAGGSLRLSCAASGSTIGYYAMGWYRPAPGKERELVAAISWSGGSTYYADSVKGRFTISRDTAKNTVYFQMNSLKPEDTAGYYCAADTYPDYYLVEYYYWGQGTQVTVSS | low polyreactivity
QVQLVESGGGLVQAGGSLRLSCAASGSTIGYYARGWSRQAPGKERELVARIRSTGVSTFYADSVKGRFTISRDNAKNTVYLQMNSLKPEDTAVYYCAAPVSSLGWKHRQYTTWYEYWGQGTQVTVSS | high polyreactivity
QVQLVESGGGLVQAGGSLRLSCAASGSTIINYAMGWYRQAPGKERELVAVITSDDGSTYYADSVKGRFTISRDNAKNTVYLQMNSLKPEDTAVYYCAADYYDQRYRPGPWYDYWGQGSQVTVSS | low polyreactivity
QVQLVESGGGLVQAGGSLRLSCAASGSTIIYYAMGWYRQAPGKESELVATISTSGTSTYYADSVKGRFTISRDNAKNTVYLQMNSLKPEDTAVYYCNAVHRNWRQKFDYWGQGTQVTVSS | high polyreactivity
QVQLVESGGGLVQAGGSLRLSCAASGSTINYYAMGWYIQAPGKERELVARITWSGARTYYADSVKGRFTISRDNAKNTVYLQMNSLKPEDTAVYYCAAGYLALESPWYYRWYDYWGQGTQVTVSS | low polyreactivity
QVQLVESGGGLVQAGGSLRLSCAASGSTIQLYAMGWYRQAPGKERELVAAITSSAGRTYYADSVKGRFTISRDNAKNTVYLQMNSLKPEDTAVYYCAKDGSFTFWGQGTQVTVSS | low polyreactivity
QVQLVESGGGLVQAGGSLRLSCAASGSTIRAYGMGWYRQAPGKERELVAAISYSGDSTYYADSVKGRFTISRDNAKNTVYLQMNSLKPEDTAVYYCDADYSYRHYEYDYWGQGTQVTVSS | low polyreactivity
QVQLVESGGGLVQAGGSLRLSCAASGSTIRKNALGWSRQAPGKEREWVADIRRGGGTNYADSVKGRFTISRDNAKNTVYLQMNSLKPEDTAVYSCNTDILYYGRSKAPFYYCGQGTQVTVSS | high polyreactivity
QVQLVESGGGLVQAGGSLRLSCAASGSTIRSNAMGWYRQAPGKERELVAAITSGGSTYYAESVKGRFTISRDNAKNTVYLQMNSLKPEDTAVYYCAVRYYRRRYDYWGQGTQVTVSS | low polyreactivity
QVQLVESGGGLVQAGGSLRLSCAASGSTIRSYAMGWYRQATRKERELVARIAYSSGRTYYADSVKGRFTISRDNAKNTVYLQMNSLKPEDTAVYYCAVRGYGYGYDYWGQGTQVTVSS | high polyreactivity
QVQLVESGGGLVQAGGSLRLSCAASGSTISFYAMGWYRQAPGKERELVAAISFRGGRTYYADSVKGRFTISRDNAKNTVYLQMYSLKPEDTAVYYCAAVWYYGHARYDYWGQGTQVTVSS | high polyreactivity
QVQLVESGGGLVQAGGSLRLSCAASGSTISFYAMGWYRQAPGKERELVAAISRSGGSTFYADSVKGRFTISRDNAKNTVYLQMNSLKPEDTAVYYCAAYGGMQSRYYYWGQGTQVTVSS | high polyreactivity
QVQLVESGGGLVQAGGSLRLSCAASGSTISPYAMGWYRQAPGKEREFVAAISRSGGSTYYADSVKVRFTISRDNAKNTVYLQMNSLKPEDTAVYYCARRYARITPVYPPLNYWGQGTQVTVSS | high polyreactivity
QVQLVESGGGLVQAGGSLRLSCAASGSTISRNAMGWYRQAPGKERELVAAITSKGDSTYYADSVKGRFTISRDNAKNTVYLQMNSLKPEDTAVYYCAAVRRGYKYDYWGQGTQVTVSS | low polyreactivity
QVQLVESGGGLVQAGGSLRLSCAASGSTISRYAMGWYRHAPGKERELVAAISWNGGDTYYADSVKGRFTISRDYAKNTVFLQMNSLKPEDTAVYYCNTPRRITRAGYWAGSRYNYWGQGTQVTVSS | high polyreactivity
QVQLVESGGGLVQAGGSLRLSCAASGSTISRYAMGWYRQAPGKEREFVAAISWRGGSTYYADSVKGRFTISRDNAKNTVYLQLNSLKPEDTAVYYCNADYRYARKGHYGKFGYWGQGTQVNVSS | high polyreactivity
